# Measurements published in publication PMC12666128, “Engineering ω-transaminase for efficient dihydroxyacetone transamination in serinol biosynthesis starting from methanol” (Synthetic and Systems Biotechnology, 2025).
# B1: Cv-ωTA (Chromobacterium violaceum ATCC 12472) (protein)
# chain: MQKQRTTSQWRELDAAHHLHPFTDTASLNQAGARVMTRGEGVYLWDSEGNKIIDGMAGLWCVNVGYGRKDFAEAARRQMEELPFYNTFFKTTHPAVVELSSLLAEVTPAGFDRVFYTNSGSESVDTMIRMVRRYWDVQGKPEKKTLIGRWNGYHGSTIGGASLGGMKYMHEQGDLPIPGMAHIEQPWWYKHGKDMTPDEFGVVAARWLEEKILEIGADKVAAFVGEPIQGAGGVIVPPATYWPEIERICRKYDVLLVADEVICGFGRTGEWFGHQHFGFQPDLFTAAKGLSSGYLPIGAVFVGKRVAEGLIAGGDFNHGFTYSGHPVCAAVAHANVAALRDEGIVQRVKDDIGPYMQKRWRETFSRFEHVDDVRGVGMVQAFTLVKNKAKRELFPDFGEIGTLCRDIFFRNNLIMRACGDHIVSAPPLVMTRAEVDEMLAVAERCLEEFEQTLKARGLA
# Substrate: O=C(CO)CO
# Type: biochemical, Chromobacterium violaceum
# Conditions: DHA as varied substrate; PLP-dependent
protein,measurement,value
B1,Km,15.2 ± 0.11 mM
same,kcat,1.61 ± 0.07 s⁻¹
same,kcat/Km,100 M⁻¹ s⁻¹
